US20130071357A1, “IDENTIFICATION, PROLIFERATION IN SITU, HARVESTING, SEPARATION, AND TRANSPLANTATION OF ADULT-DERIVED REGENERATIVE PLURIPOTENT TRANSITIONAL BLASTOMERE-LIKE STEM CELLS AND METHODS OF TREATMENT THEREOF” (HEYGEN, LLC, priority 2011, published 2013)

Columns and labels:
[1] = test system: adult totipotent blastomeric-like stem cells; test: induction of blastomeric-like stem cells in culture; assay type: cell-based, rat; details: BLSCs
Description: 1961; Rohme 1981; Young and Black, 2005a].
FIG. 7. Blastomeric-like stem cells (BLSCs) harvested from male Sprague-Dawley out bred rat 0001 and propagated from a single cell derived by serial dilution clonogenic analysis, then genomically labeled with LacZ to synthesize the beta-galactosidase gene product. Clone designated as Scl-44beta. […] B-L is phase contrast microscopy to show unstained cells in field of view. […] Original magnification 200×.
FIG. 8. Blastomeric-like stem cells (BLSCs) harvested from male Sprague-Dawley out bred rat 0001 and propagated from a single cell derived by serial dilution clonogenic analysis, then genomically labeled with LacZ to synthesize the beta-galactosidase gene product. Clone designated as Scl-44beta.

[2] = test system: adult pluripotent epiblast-like stem cells; test: induction of epiblast-like stem cells in culture; assay type: cell-based, rat; details: ELSCs

B1: brain-derived neurotrophic factor: lineage-induction agent (protein, UniProt P23560 19-247, looked up)
Neurotrophic factor BDNF …: APMKEANIRGQGGLAYPGVRTHGTLESVNGPKAGSRGLTSLADTFEHVIEELLDEDQKVRPNEENNKDADLYTSRVMLSSQVPLEPPLLFLLEEYKNYLDAANMSMRVRRHSDPARRGELSVCDSISEWVTAADKKTAVDMSGGTVTVLEKVPVSKGQLKQYFYETKCNPMGYTKEGCRGIDKRHWNSQCRTTQSYVRALTMDSKKRIGWRFIRIDTSCVCTLTIKRGR
response to lineage-induction agent [1]: forming cells belonging to the ectodermal lineage
response to lineage-induction agent [2]: forming cells belonging to the ectodermal lineage
